Results on 1 molecule are retold here after patent US20140221622A1.

For this assay, the target named is EGFR on U87MG.de2-7 cells (UniProt P00533). The experiment in a line: flow cytometry on U87MG.de2-7 cells, Alexa Fluor 488 anti-human IgG Fc. On the technique in general: A flow cytometer gives signals particle by particle.

The EC50 is the concentration needed to bring the measured effect to its halfway point. Read a low EC50 as higher potency in that assay.

B1: DB001 DVD-Ig (CD3 and EGFR) (bispecific antibody)
VH: QVQLQESGPGLVKPSQTLSLTCTVSGYSISSDFAWNWIRQPPGKGLEWMGYISYSGNTRYQPSLKSRITISRDTSKNQFFLKLNSVTAADTATYYCVTAGRGFPYWGQGTLVTVSSASTKGPEVQLVESGGGLVQPGGSLRLSCAASGFTFSTYAMNWVRQAPGKGLEWVGRIRSKYNNYATYYADSVKDRFTISRDDSKNTAYLQMNSLRAEDTAVYYCTRHGNFGNSYVSWFAYWGQGTLVTVSS
VL: DIQMTQSPSSMSVSVGDRVTITCHSSQDINSNIGWLQQKPGKSFKGLIYHGTNLDDGVPSRFSGSGSGTDYTLTISSLQPEDFATYYCVQYAQFPWTFGGGTKLEIKTVAAPSVFIFPPDAQVTQSPSSLSASVGDRVTITCRSSTGAVTTSNYANWVQEKPGKLFKGLIGGTNKRAPGVPSRFSGSGSGTDATLTISSLQPEDFATYFCALWYSNLWVFGGGTKVEIKR
As to B1, the EC50 came out at 9 nM.
